Here are results for 1 molecule from patent publication US20060272037A1 (JULIUS MAXIMILIANS UNIVERSITAT, published 2006).

Assay [1] concerns the target PTH receptor-cam8 "chameleon" (human). Kind of assay: cell-based or functional assay.
The target in assay [2] is T1, PTH receptor-cam8 "chameleon" (human).
T1 construct: Stably expressed in HEK293 cells; also tested in membranes made from these cells; also called PTHR-cam; PTHR-cam8
Kind of assay: competition ligand binding, receptor stably expressed in HEK293 cells.

T1 sequence (chain, as listed by the source limits assumed): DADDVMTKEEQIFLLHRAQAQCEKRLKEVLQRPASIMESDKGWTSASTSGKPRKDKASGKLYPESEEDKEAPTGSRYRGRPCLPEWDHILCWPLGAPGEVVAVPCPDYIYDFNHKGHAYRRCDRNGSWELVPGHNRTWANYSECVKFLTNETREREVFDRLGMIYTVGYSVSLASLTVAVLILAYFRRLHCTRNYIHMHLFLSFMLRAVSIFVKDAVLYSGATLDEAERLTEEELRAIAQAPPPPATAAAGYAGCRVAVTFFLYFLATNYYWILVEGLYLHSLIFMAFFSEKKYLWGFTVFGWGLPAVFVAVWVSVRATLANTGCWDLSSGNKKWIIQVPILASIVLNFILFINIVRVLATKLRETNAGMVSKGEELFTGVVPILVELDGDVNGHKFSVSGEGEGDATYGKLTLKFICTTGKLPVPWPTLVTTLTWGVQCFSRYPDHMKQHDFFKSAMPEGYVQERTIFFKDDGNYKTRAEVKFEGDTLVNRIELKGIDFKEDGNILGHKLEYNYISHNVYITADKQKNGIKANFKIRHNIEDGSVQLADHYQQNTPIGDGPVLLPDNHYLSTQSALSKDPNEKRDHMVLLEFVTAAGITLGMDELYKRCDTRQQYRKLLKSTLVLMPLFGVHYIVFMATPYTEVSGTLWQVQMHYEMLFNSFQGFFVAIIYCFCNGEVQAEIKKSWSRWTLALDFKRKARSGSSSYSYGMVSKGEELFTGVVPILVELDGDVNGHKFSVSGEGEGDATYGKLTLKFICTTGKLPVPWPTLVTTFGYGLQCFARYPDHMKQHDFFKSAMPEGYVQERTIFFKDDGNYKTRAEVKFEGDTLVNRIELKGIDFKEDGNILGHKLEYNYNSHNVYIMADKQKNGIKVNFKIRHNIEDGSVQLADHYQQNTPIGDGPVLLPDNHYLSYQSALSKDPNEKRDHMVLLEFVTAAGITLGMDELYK

B1: parathyroid hormone (PTH) (peptide, UniProt P01270 32-65, looked up)
peptide: SVSEIQLMHNLGKHLNSMERVEWLRKKLQDVHNF
In the case of B1, the “EC50 of signalling to adenylyl cyclase” value in assay [1] turned out to be 12.8 nM. In assay [2], this molecule yielded a Ki of 15.5 nM.

What is called Ki is a dissociation constant, usually derived from enzyme kinetics or from competition with a known ligand.
